Measured values taken from the RNAGym collection of RNA variant scans (doi:10.1101/gr.219683.116).

B1: mRNA-splicing (parent)
chain: AGUUGCUGCUGGGAGCUCCAGCACAGUGAAAUGGACAGAAGGGCAGAGCAA

Variants of: B1
Assay: exon inclusion enrichment index; higher = more inclusion; WT1 exon 5 minigene, HEK293
In the case of G21C C22G, the “exon inclusion enrichment index” value is reported as 3.35. For G5C C6U G8C C9U U10C C19A A20C, the “exon inclusion enrichment index” value was 0.813. For G5C C6A U7C G8A U10A C16G U17A, the “exon inclusion enrichment index” value was 0.181. With G5C C6G U7C U10C G41A the “exon inclusion enrichment index” value was 2.7. With G5A C6G U7G C9A G41U the “exon inclusion enrichment index” value was 0.000489. In the case of G5U G8U C9U A39G A40G, the “exon inclusion enrichment index” value is reported as 0.00566. In the case of G5A C6U U7A G8U C9A G41U G42C, the “exon inclusion enrichment index” value is reported as 0.226. For G5C C6A U7C G8A U10A C24A A25C, the “exon inclusion enrichment index” value was 0.742. In the case of U3G U4A G5A C6U U7A G8U C9A, the “exon inclusion enrichment index” value is reported as 0.0777. With G5A C6G U7G C9A A29C A30G the “exon inclusion enrichment index” value was 0.0167. With G34U A35G the “exon inclusion enrichment index” value was 0.142. For G5C C6G U7C U10C A45C, the “exon inclusion enrichment index” value was 3.17. For U4A G5C C6G U7G C9A, the “exon inclusion enrichment index” value was 0.594. With C6A U7C C9A U10C G11U G12C the “exon inclusion enrichment index” value was 1.94. For G5U G8U C9U G12A G13A, the “exon inclusion enrichment index” value was 0.0133. For G5C C6G U7C U10C C22U, the “exon inclusion enrichment index” value was 3.4. In the case of C6A U7A C9A U10A C22U A23U, the “exon inclusion enrichment index” value is reported as 0.226. In the case of G5A U7C G8A U10C U32C G33A, the “exon inclusion enrichment index” value is reported as 1.18. For U4A G5C C6A U7C C9A U10C, the “exon inclusion enrichment index” value was 2.5. With G48C the “exon inclusion enrichment index” value was 0.292. With C6A U7A C9A U10A C22A A23C the “exon inclusion enrichment index” value was 1.39. With G5A U7C G8A U10C A40U G41U the “exon inclusion enrichment index” value was 1.26. With U3C U4A G5C C6G U7C U10C the “exon inclusion enrichment index” value was 2.55. In the case of G5A C6G U7G C9A C19U A20C, the “exon inclusion enrichment index” value is reported as 0.00291. With G5A C6U U7A G8U C9A A45U G46U the “exon inclusion enrichment index” value was 0.0214. In the case of G2A U3A C6A U7A C9A U10A, the “exon inclusion enrichment index” value is reported as 0.777. In the case of U4C G5U C6G U7C U10C, the “exon inclusion enrichment index” value is reported as 4.01. In the case of C6A U7C C9A U10C G11C G12U, the “exon inclusion enrichment index” value is reported as 2.2. For G5C C6U G8C C9U U10C G34A A35U, the “exon inclusion enrichment index” value was 0.568. In the case of C6A U7A C9A U10A A30C A31C, the “exon inclusion enrichment index” value is reported as 1.38. For G5A C6G U7G C9A A30C A31C, the “exon inclusion enrichment index” value was 0.00182. With G5A C6G U7G C9A A30C A31U the “exon inclusion enrichment index” value was 0.00118. In the case of G5U G8U C9U C22A, the “exon inclusion enrichment index” value is reported as 0.117. In the case of G5A C6G U7G C9A G33U G34A, the “exon inclusion enrichment index” value is reported as 0.000839. With G5A C6U U7A G8U C9A A25C the “exon inclusion enrichment index” value was 0.501. In the case of G5A C6U U7A G8U C9A U27A G28U, the “exon inclusion enrichment index” value is reported as 0.0109. In the case of G5C C6U G8C C9U U10C U17A C18G, the “exon inclusion enrichment index” value is reported as 1.83. In the case of G5C C6G U7C U10C, the “exon inclusion enrichment index” value is reported as 3.75. In the case of G5A C6U U7A G8U C9A G43U, the “exon inclusion enrichment index” value is reported as 0.0904. For C6A U7C C9A U10C U17G C18A, the “exon inclusion enrichment index” value was 3.29. With G5A C6G U7G C9A G15C C16G the “exon inclusion enrichment index” value was 0.004. In the case of G5C C6U G8C C9U U10C A40C, the “exon inclusion enrichment index” value is reported as 2.94. In the case of U7G C9A U10A, the “exon inclusion enrichment index” value is reported as 1. With U3C U4C G5C C6G U7C U10C the “exon inclusion enrichment index” value was 2.61. For G5C U10C, the “exon inclusion enrichment index” value was 1.29. With G5A C6G U7G C9A G42U G43A the “exon inclusion enrichment index” value was 0.00514. With G5C C6G U7C U10C G15U C16G the “exon inclusion enrichment index” value was 4.02. With G5A C6U U7A G8U C9A A45G G46A the “exon inclusion enrichment index” value was 0.447. With G5C C6A U7C G8A U10A A47G G48A the “exon inclusion enrichment index” value was 0.0475. With G5U G8U C9U A45C the “exon inclusion enrichment index” value was 0.201. With C6A U7C C9A U10C A31G U32C the “exon inclusion enrichment index” value was 4.39. For G2U U3G G5A C6U U7A G8U C9A, the “exon inclusion enrichment index” value was 0.348. For G5A C6U U7A G8U C9A A30G A31U, the “exon inclusion enrichment index” value was 0.0123. For G42A G43C, the “exon inclusion enrichment index” value was 2.4. For G5C C6U U7G G8U C9U U10C, the “exon inclusion enrichment index” value was 1.07. With G5C C6G U7C U10C A25C G26U the “exon inclusion enrichment index” value was 4.06. For C6A U7A C9A U10A A40C G41A, the “exon inclusion enrichment index” value was 0.218. For G5C C6G U7C U10C A31U U32A, the “exon inclusion enrichment index” value was 0.77. In the case of U4A G5U C6G U7G C9A, the “exon inclusion enrichment index” value is reported as 0.0707. With C6A U7A C9A U10A A25U G26C the “exon inclusion enrichment index” value was 0.956. In the case of G5U G8U C9U G34A A35U, the “exon inclusion enrichment index” value is reported as 0.0163. With G5A C6U U7A G8U C9A A40U the “exon inclusion enrichment index” value was 0.0441. In the case of G5U G8U C9U G42C G43A, the “exon inclusion enrichment index” value is reported as 0.494. For G5U G8U C9U C24A, the “exon inclusion enrichment index” value was 0.116. With G5A C6U U7A G8U C9A A25U G26C the “exon inclusion enrichment index” value was 0.157. For G5A C6U U7A G8U C9A G34U A35U, the “exon inclusion enrichment index” value was 0.007. With G5C U7C C9A U10C the “exon inclusion enrichment index” value was 0.262. With C6A U7C C9A U10C G15U the “exon inclusion enrichment index” value was 3.57. With C6U U7C C9A U10C the “exon inclusion enrichment index” value was 3.37. In the case of G5A C6G U7G C9A G46U A47C, the “exon inclusion enrichment index” value is reported as 0.0165. In the case of G5U G8U C9G, the “exon inclusion enrichment index” value is reported as 0.267. For A29C A30G, the “exon inclusion enrichment index” value was 0.677. In the case of G5A C6U U7A G8U C9A G28A A29U, the “exon inclusion enrichment index” value is reported as 0.00845. In the case of G5C C6U G8C C9U U10C A25U G26C, the “exon inclusion enrichment index” value is reported as 2.38. In the case of C6A U7C C9A U10C C22A A23U, the “exon inclusion enrichment index” value is reported as 2.92. In the case of G5C C6A U7C G8A U10A C22U A23C, the “exon inclusion enrichment index” value is reported as 0.0379. For G5A C6U U7A G8U C9A A47G G48U, the “exon inclusion enrichment index” value was 0.00228. With G5C C6A U7C G8A U10A G33C G34A the “exon inclusion enrichment index” value was 0.0324. With G5A C6U U7A G8U C9A U17C C18U the “exon inclusion enrichment index” value was 0.0327. For G5A U7C G8A U10C A31G U32A, the “exon inclusion enrichment index” value was 4.37. With G5A U7C G8A U10C A45C G46A the “exon inclusion enrichment index” value was 1.42. For G5A C6U U7A G8U C9A G28A, the “exon inclusion enrichment index” value was 0.0134. In the case of G5A U7C G8A U10C A23C C24A, the “exon inclusion enrichment index” value is reported as 2.48.
